According to paper PMC6555819, “Comprehensive study of nuclear receptor DNA binding provides a revised framework for understanding receptor specificity”:

Legend:
THRa:RXRa = THRa:RXRa (Homo sapiens, UniProt P10827;P19793 full;full); test: no ligand; PBM; 90 nM : 90 nM RXRa; PBS pH 7.4, 2% milk, 0.02% Triton X-100, 1 mM DTT, BSA, 0.4 mg/ml salmon testes DNA; details: tags: His kept;His cleaved; copies: 1;1; label: surface-attached array probe
RARb:RXRa = RARb:RXRa (Homo sapiens, UniProt P10826;P19793 full;full); test: no ligand; PBM; 270 nM : 90 nM RXRa; PBS pH 7.4, 2% milk, 0.02% Triton X-100, 1 mM DTT, BSA, 0.4 mg/ml salmon testes DNA; details: tags: His kept;His cleaved; copies: 1;1; label: surface-attached array probe
RARb:RXRa, sequence (P10826 whole entry, chain 1 of 2): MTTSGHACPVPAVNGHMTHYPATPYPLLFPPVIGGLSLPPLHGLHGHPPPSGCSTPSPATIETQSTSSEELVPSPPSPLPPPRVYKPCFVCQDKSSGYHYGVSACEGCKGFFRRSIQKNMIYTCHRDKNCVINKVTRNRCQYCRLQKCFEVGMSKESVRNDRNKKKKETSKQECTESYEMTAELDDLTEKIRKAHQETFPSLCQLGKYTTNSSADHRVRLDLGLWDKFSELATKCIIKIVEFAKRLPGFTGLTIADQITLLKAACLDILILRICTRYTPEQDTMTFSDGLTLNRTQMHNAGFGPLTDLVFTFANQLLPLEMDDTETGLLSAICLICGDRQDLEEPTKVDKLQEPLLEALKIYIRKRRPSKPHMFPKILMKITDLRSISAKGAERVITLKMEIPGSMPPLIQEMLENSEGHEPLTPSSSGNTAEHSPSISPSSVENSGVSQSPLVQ
RARb:RXRa, sequence (P19793 whole entry, chain 2 of 2): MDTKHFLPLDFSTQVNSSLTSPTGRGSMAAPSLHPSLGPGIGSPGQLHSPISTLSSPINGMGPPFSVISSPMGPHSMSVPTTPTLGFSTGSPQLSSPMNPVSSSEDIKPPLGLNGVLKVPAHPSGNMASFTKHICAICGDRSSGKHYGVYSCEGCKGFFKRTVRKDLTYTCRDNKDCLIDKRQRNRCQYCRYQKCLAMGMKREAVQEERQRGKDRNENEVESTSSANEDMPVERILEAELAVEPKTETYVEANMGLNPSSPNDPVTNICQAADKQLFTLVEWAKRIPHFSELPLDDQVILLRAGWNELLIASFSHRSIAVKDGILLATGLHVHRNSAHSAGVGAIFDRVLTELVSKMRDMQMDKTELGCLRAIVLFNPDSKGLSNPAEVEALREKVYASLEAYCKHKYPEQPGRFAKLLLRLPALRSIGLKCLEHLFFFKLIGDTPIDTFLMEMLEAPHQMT
Summary of the method: (§1)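 Ligand-free nuclear receptor dimers were applied to custom Agilent 4×180K protein-binding microarrays whose double-stranded probes carried direct-repeat seeds, single-nucleotide variants, half-site ablations and random human genomic background sequences in 34-nt variable regions. Incubation lasted 1 h. Binding z-scores were computed against the random background probes from regression-normalized fluorescence.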

LXRa:RXRa = LXRa:RXRa (Homo sapiens, UniProt Q13133;P19793 full;full); test: as above; details: tags: His kept;His cleaved; copies: 1;1; label: surface-attached array probe
LXRa:RXRa, sequence (Q13133 whole entry, chain 1 of 2): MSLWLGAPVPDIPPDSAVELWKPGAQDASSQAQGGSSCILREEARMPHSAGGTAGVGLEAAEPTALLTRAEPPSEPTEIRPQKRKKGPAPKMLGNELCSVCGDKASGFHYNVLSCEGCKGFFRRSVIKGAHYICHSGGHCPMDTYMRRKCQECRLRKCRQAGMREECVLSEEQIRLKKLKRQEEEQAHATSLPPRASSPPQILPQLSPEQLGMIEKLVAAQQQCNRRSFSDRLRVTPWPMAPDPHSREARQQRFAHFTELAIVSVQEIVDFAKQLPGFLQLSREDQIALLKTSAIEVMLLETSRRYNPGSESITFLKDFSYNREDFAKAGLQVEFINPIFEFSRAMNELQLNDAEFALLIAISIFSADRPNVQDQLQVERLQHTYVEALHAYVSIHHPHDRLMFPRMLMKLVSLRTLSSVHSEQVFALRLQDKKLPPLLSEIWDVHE
LXRa:RXRa, sequence (P19793 whole entry, chain 2 of 2): as the sequence (P19793 whole entry, chain 2 of 2) above
Summary of the method: as §1

LXRb:RXRa = LXRb:RXRa (Homo sapiens, UniProt P55055;P19793 full;full); test: as above; details: tags: His kept;His cleaved; copies: 1;1; label: surface-attached array probe
LXRb:RXRa, sequence (P55055 whole entry, chain 1 of 2): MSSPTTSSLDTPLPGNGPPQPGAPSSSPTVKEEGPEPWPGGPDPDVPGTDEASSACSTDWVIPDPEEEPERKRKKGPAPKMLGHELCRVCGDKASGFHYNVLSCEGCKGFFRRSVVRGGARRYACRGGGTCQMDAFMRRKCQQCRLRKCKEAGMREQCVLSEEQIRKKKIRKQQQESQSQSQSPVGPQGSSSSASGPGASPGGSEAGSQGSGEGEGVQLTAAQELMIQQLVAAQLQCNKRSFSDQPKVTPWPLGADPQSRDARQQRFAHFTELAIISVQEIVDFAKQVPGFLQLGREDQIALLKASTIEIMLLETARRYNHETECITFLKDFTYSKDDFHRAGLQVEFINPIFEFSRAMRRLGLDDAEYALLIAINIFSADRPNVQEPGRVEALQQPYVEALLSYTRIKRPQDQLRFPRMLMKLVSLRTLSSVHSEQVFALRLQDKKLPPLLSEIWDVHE
LXRb:RXRa, sequence (P19793 whole entry, chain 2 of 2): as the sequence (P19793 whole entry, chain 2 of 2) above
Summary of the method: as §1

FXR:RXRa = FXR:RXRa (Homo sapiens, UniProt Q96RI1;P19793 full;full); test: as above; details: tags: His kept;His cleaved; copies: 1;1; label: surface-attached array probe
Summary of the method: as §1

PXR:RXRa = PXR:RXRa (Homo sapiens, UniProt O75469;P19793 full;full); test: as above; details: tags: His kept;His cleaved; copies: 1;1; label: surface-attached array probe
Summary of the method: as §1

VDR:RXRa = VDR:RXRa (Homo sapiens, UniProt P11473;P19793 full;full); test: as above; details: tags: His kept;His cleaved; copies: 1;1; label: surface-attached array probe
Summary of the method: as §1

PPARg:RXRa = PPARg:RXRa (Homo sapiens, UniProt P37231;P19793 full;full); test: no ligand; PBM; 180 nM : 90 nM RXRa; PBS pH 7.4, 2% milk, 0.02% Triton X-100, 1 mM DTT, BSA, 0.4 mg/ml salmon testes DNA; details: tags: His kept;His cleaved; copies: 1;1; label: surface-attached array probe
RARg:RXRa = RARg:RXRa (Homo sapiens, UniProt P13631;P19793 full;full); test: no ligand; PBM; 270 nM : 90 nM RXRa; PBS pH 7.4, 2% milk, 0.02% Triton X-100, 1 mM DTT, BSA, 0.4 mg/ml salmon testes DNA; details: tags: His kept;His cleaved; copies: 1;1; label: surface-attached array probe
RARg:RXRa, sequence (P13631 whole entry, chain 1 of 2): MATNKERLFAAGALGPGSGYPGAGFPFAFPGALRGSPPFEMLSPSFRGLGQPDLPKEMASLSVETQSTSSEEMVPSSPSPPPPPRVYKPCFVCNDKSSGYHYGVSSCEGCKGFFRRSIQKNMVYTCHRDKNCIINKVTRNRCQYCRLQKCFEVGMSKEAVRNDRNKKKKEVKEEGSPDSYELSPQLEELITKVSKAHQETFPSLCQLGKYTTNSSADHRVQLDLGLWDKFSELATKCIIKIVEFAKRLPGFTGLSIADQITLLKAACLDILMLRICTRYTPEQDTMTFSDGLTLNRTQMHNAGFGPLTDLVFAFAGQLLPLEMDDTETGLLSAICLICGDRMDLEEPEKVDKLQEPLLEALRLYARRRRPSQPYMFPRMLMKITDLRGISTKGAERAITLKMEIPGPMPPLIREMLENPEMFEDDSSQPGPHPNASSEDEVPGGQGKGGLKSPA
RARg:RXRa, sequence (P19793 whole entry, chain 2 of 2): as the sequence (P19793 whole entry, chain 2 of 2) above
Summary of the method: as §1

PPARa:RXRa = PPARa:RXRa (Homo sapiens, UniProt Q07869;P19793 full;full); test: as above; details: tags: GST kept;His cleaved; copies: 1;1; label: surface-attached array probe
PPARa:RXRa, sequence (Q07869 whole entry, chain 1 of 2): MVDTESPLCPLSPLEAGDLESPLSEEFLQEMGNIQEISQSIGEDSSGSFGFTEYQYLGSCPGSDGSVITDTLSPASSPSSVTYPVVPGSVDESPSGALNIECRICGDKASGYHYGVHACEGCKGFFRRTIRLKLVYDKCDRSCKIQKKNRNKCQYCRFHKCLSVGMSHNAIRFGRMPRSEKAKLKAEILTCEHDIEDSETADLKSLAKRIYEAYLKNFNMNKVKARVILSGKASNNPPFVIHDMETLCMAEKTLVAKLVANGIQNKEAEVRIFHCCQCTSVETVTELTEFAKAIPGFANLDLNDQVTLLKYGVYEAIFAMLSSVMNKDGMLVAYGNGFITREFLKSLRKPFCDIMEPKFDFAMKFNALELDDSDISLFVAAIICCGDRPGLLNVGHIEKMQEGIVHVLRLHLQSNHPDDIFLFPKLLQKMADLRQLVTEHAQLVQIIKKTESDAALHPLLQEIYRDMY
PPARa:RXRa, sequence (P19793 whole entry, chain 2 of 2): as the sequence (P19793 whole entry, chain 2 of 2) above
Summary of the method: as §1

RXRa = RXRa (Homo sapiens, UniProt P19793); test: no ligand; PBM; 180 nM; PBS pH 7.4, 2% milk, 0.02% Triton X-100, 1 mM DTT, BSA, 0.4 mg/ml salmon testes DNA; details: tags: His cleaved; chain copies: 2; label: surface-attached array probe

Binder	binding signal (THRa:RXRa)	binding signal (RARb:RXRa)	binding signal (LXRa:RXRa)	binding signal (LXRb:RXRa)	binding signal (FXR:RXRa)	binding signal (PXR:RXRa)	binding signal (VDR:RXRa)	binding signal (PPARg:RXRa)	binding signal (RARg:RXRa)	binding signal (PPARa:RXRa)	binding signal (RXRa)
NRC3_wobSeed94_DR3_G13C_o1 (dsDNA) DNA 1: GCCTACCAAGGTCAACAAGGTCGTTGATTACTATTCGCGATTGACAGCGTAGAATGAAGG DNA 2: CCTTCATTCTACGCTGTCAATCGCGAATAGTAATCAACGACCTTGTTGACCTTGGTAGGC	4.82 PBM z-score against 500 random probes	5.51 PBM z-score against 500 random probes	6.7 PBM z-score against 500 random probes	5.94 PBM z-score against 500 random probes	8.19 PBM z-score against 500 random probes	6.83 PBM z-score against 500 random probes	8.68 PBM z-score against 500 random probes				
NRC3_random_hg19_119_o1 (dsDNA) DNA 1: GCCCTACCCTCCTCCCTGTCACTCGCCAGTCCCAGCGCGATTGACAGCGTAGAATGAAGG DNA 2: CCTTCATTCTACGCTGTCAATCGCGCTGGGACTGGCGAGTGACAGGGAGGAGGGTAGGGC	-0.04 PBM z-score against 500 random probes						0.49 PBM z-score against 500 random probes	-0.75 PBM z-score against 500 random probes			
NRC3_wobSeed138_DR5_C13G_o1 (dsDNA) DNA 1: GCGATACAGGGTGAGCTAGAGGCCAGAGTATGGAAAGCGATTGACAGCGTAGAATGAAGG DNA 2: CCTTCATTCTACGCTGTCAATCGCTTTCCATACTCTGGCCTCTAGCTCACCCTGTATCGC	0.33 PBM z-score against 500 random probes							0.43 PBM z-score against 500 random probes			
NRC3_wobSeed114_DR4_C22T_o1 (dsDNA) DNA 1: GCAATACAGGGTCATCGTAGGTCAGAGTACGCACAGGCGATTGACAGCGTAGAATGAAGG DNA 2: CCTTCATTCTACGCTGTCAATCGCCTGTGCGTACTCTGACCTACGATGACCCTGTATTGC	5.25 PBM z-score against 500 random probes		7.62 PBM z-score against 500 random probes	6.24 PBM z-score against 500 random probes		6.36 PBM z-score against 500 random probes					
NRC3_wobSeed119_DR4_G23C_o1 (dsDNA) DNA 1: GCGGAACGAGGGCATTCGAGTTCATAGCATGGCGATGCGATTGACAGCGTAGAATGAAGG DNA 2: CCTTCATTCTACGCTGTCAATCGCATCGCCATGCTATGAACTCGAATGCCCTCGTTCCGC	4.79 PBM z-score against 500 random probes		6.87 PBM z-score against 500 random probes			7.11 PBM z-score against 500 random probes	7.03 PBM z-score against 500 random probes				
NRC3_wobSeed120_DR4_G22T_o1 (dsDNA) DNA 1: GCCCGAGTAGGTTACGAGGGGTCATTCAGTGCGAATGCGATTGACAGCGTAGAATGAAGG DNA 2: CCTTCATTCTACGCTGTCAATCGCATTCGCACTGAATGACCCCTCGTAACCTACTCGGGC	4.77 PBM z-score against 500 random probes		8.11 PBM z-score against 500 random probes	7.35 PBM z-score against 500 random probes		6.59 PBM z-score against 500 random probes	6.94 PBM z-score against 500 random probes				
NRC3_wobSeed85_DR3_G15C_o1 (dsDNA) DNA 1: GCCGTCCAAGGTCACAGAGGTCAGTGAATGCCGAGTGCGATTGACAGCGTAGAATGAAGG DNA 2: CCTTCATTCTACGCTGTCAATCGCACTCGGCATTCACTGACCTCTGTGACCTTGGACGGC	4.91 PBM z-score against 500 random probes	5.99 PBM z-score against 500 random probes		5.81 PBM z-score against 500 random probes	7.83 PBM z-score against 500 random probes	6.95 PBM z-score against 500 random probes			7.46 PBM z-score against 500 random probes	6.53 PBM z-score against 500 random probes	
NRC3_random_hg19_47_o1 (dsDNA) DNA 1: GCGCCTTCAGGAACATGCTATTCTGTCTATGGAGTCGCGATTGACAGCGTAGAATGAAGG DNA 2: CCTTCATTCTACGCTGTCAATCGCGACTCCATAGACAGAATAGCATGTTCCTGAAGGCGC	-0.54 PBM z-score against 500 random probes							0.27 PBM z-score against 500 random probes			
NRC3_wobSeed73_DR3_A18G_o1 (dsDNA) DNA 1: GCCAAACTAGGTCACAGGGGTCAAAGTCCGTGCGTAGCGATTGACAGCGTAGAATGAAGG DNA 2: CCTTCATTCTACGCTGTCAATCGCTACGCACGGACTTTGACCCCTGTGACCTAGTTTGGC	5.07 PBM z-score against 500 random probes							10.8 PBM z-score against 500 random probes	7.8 PBM z-score against 500 random probes	7.23 PBM z-score against 500 random probes	
NRC3_random_hg19_372_o1 (dsDNA) DNA 1: GCGAGGTTGCAGTGAGCCAAGATTGCACCACTGCACGCGATTGACAGCGTAGAATGAAGG DNA 2: CCTTCATTCTACGCTGTCAATCGCGTGCAGTGGTGCAATCTTGGCTCACTGCAACCTCGC	-0.05 PBM z-score against 500 random probes							-0.12 PBM z-score against 500 random probes			
NRC3_random_hg19_419_o1 (dsDNA) DNA 1: GCAGAGCAGACTTCCTGTGTATGTTAGGATGAAACCGCGATTGACAGCGTAGAATGAAGG DNA 2: CCTTCATTCTACGCTGTCAATCGCGGTTTCATCCTAACATACACAGGAAGTCTGCTCTGC	-0.56 PBM z-score against 500 random probes		-0.87 PBM z-score against 500 random probes		-0.65 PBM z-score against 500 random probes	-0.62 PBM z-score against 500 random probes					
NRC3_random_hg19_103_o1 (dsDNA) DNA 1: GCTCAGGAGTTCGAGAACAGCCTGGCTAACATGGCGGCGATTGACAGCGTAGAATGAAGG DNA 2: CCTTCATTCTACGCTGTCAATCGCCGCCATGTTAGCCAGGCTGTTCTCGAACTCCTGAGC	-0.5 PBM z-score against 500 random probes		0.13 PBM z-score against 500 random probes			0.28 PBM z-score against 500 random probes					
NRC3_wobSeed133_DR5_C18T_o1 (dsDNA) DNA 1: GCCGTCCAAGGTCAATGTTAGGTCAGTGAAAGCATTGCGATTGACAGCGTAGAATGAAGG DNA 2: CCTTCATTCTACGCTGTCAATCGCAATGCTTTCACTGACCTAACATTGACCTTGGACGGC	5.15 PBM z-score against 500 random probes	5.45 PBM z-score against 500 random probes						4 PBM z-score against 500 random probes			
NRC3_wobSeed77_DR3_T22C_o1 (dsDNA) DNA 1: GCACTTACGGGTCAACGAGGTCATAGCACGCGTATAGCGATTGACAGCGTAGAATGAAGG DNA 2: CCTTCATTCTACGCTGTCAATCGCTATACGCGTGCTATGACCTCGTTGACCCGTAAGTGC	4.97 PBM z-score against 500 random probes			6.07 PBM z-score against 500 random probes		6.59 PBM z-score against 500 random probes	8.66 PBM z-score against 500 random probes				7.88 PBM z-score against 500 random probes
NRC3_wobSeed49_DR2_T8G_o1 (dsDNA) DNA 1: GCCAAACGAGGTCAAGAGGTCAAAGTCCGCTTCCCGGCGATTGACAGCGTAGAATGAAGG DNA 2: CCTTCATTCTACGCTGTCAATCGCCGGGAAGCGGACTTTGACCTCTTGACCTCGTTTGGC	5.13 PBM z-score against 500 random probes	6.35 PBM z-score against 500 random probes	7.08 PBM z-score against 500 random probes	6.98 PBM z-score against 500 random probes	8.68 PBM z-score against 500 random probes	7.24 PBM z-score against 500 random probes	7.24 PBM z-score against 500 random probes		9.13 PBM z-score against 500 random probes	7.33 PBM z-score against 500 random probes	9.6 PBM z-score against 500 random probes
NRC3_wobSeed113_DR4_G15A_o1 (dsDNA) DNA 1: GCATATGTAGGTTAACTGGGGTCATTCAGACTAGGCGCGATTGACAGCGTAGAATGAAGG DNA 2: CCTTCATTCTACGCTGTCAATCGCGCCTAGTCTGAATGACCCCAGTTAACCTACATATGC	5.49 PBM z-score against 500 random probes		7.87 PBM z-score against 500 random probes	6.88 PBM z-score against 500 random probes		6.99 PBM z-score against 500 random probes	7.19 PBM z-score against 500 random probes				
NRC3_random_hg19_80_o1 (dsDNA) DNA 1: GCCAATACAGCTTTGGCTTCTGCAGAATCTGAGGAAGCGATTGACAGCGTAGAATGAAGG DNA 2: CCTTCATTCTACGCTGTCAATCGCTTCCTCAGATTCTGCAGAAGCCAAAGCTGTATTGGC	-1.02 PBM z-score against 500 random probes							-0.24 PBM z-score against 500 random probes			-0.53 PBM z-score against 500 random probes
NRC3_wobSeed117_DR4_A23T_o1 (dsDNA) DNA 1: GCCGTCAAAGTTCAACTAAGGTTACGTAAAGCACGCGCGATTGACAGCGTAGAATGAAGG DNA 2: CCTTCATTCTACGCTGTCAATCGCGCGTGCTTTACGTAACCTTAGTTGAACTTTGACGGC	5.54 PBM z-score against 500 random probes		7.31 PBM z-score against 500 random probes			6.82 PBM z-score against 500 random probes					
NRC3_random_hg19_322_o1 (dsDNA) DNA 1: GCTGTAAAGTGGTCCACTGACAGCTTCCACTCTTCTGCGATTGACAGCGTAGAATGAAGG DNA 2: CCTTCATTCTACGCTGTCAATCGCAGAAGAGTGGAAGCTGTCAGTGGACCACTTTACAGC	-0.7 PBM z-score against 500 random probes			-0.71 PBM z-score against 500 random probes		-0.56 PBM z-score against 500 random probes	-0.74 PBM z-score against 500 random probes				
